Columns and labels:
Assay in all cases: pull-down binding Z-score (relative to library population); higher = stronger binding
Conditions in all cases: RNA library: Library-2
[1] = test system: TO-3-N3 (biotin conjugate)
In short: (§1)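 Streptavidin beads bearing 100 pmol of a biotin-conjugated small molecule were incubated for 60 min at 25 °C with 1 μg of heat-folded, Cy5- or Cy3-end-labelled RNA library in phosphate/NaCl/KCl buffer. Hot SDS eluted the RNA that stayed bound after three washes, and this RNA was hybridised for 20 h at 55.5 °C to a DNA barcode microarray. Binding was expressed as a Z-score against the library mean and standard deviation, after subtraction of a beads-only signal and trimmed averaging of barcoded replicate probes.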

[2] = test system: TO-N3-2 (biotin conjugate)
In short: as §1

[3] = test system: TO-N3 (biotin conjugate)
In short: as §1

[4] = test system: TO-3-N3-2 (biotin conjugate)
In short: as §1

Sequence	pull-down binding Z-score [1]	pull-down binding Z-score [2]	pull-down binding Z-score [3]	pull-down binding Z-score [4]
ACAACAGGAGUCACCUUUUGU [DMSMaPseq_invitro_SARS-CoV-2_Motif_108]	-0.879	-1.07	-1.15	-0.592
ACAACCCUUAAGGGUGU [SHAPE_invivo_SARS-CoV-2_Motif_115]	-0.802	-1.1	-1.19	-0.665
ACAAGAGGGUGUGGUUGAUUAUGGUGCUAGAUUUUACUUUUACACCAGUAAAACAACUGUAGCGUCACUUAUCAACACACUUAACGAUCUAAAUGAAACUCUUGU	0.233	0.277	0.447	0.984
ACAAGAUGAUAAGAAAAUCAAAGCUUGU	-0.879	-0.969	-1.1	-0.459
ACAAGGCUAUUGAUGGUGGUGUCACUCGUGACAUAGCAUCUACAGAUACUUGU [SHAPE_invitro_SARS-CoV-2_Motif_170]	-0.355	-0.052	-0.449	-0.287
ACAAGUUGCAAUUUACAAGUCUUGAAAUUCCACGUAGGAAUGUGGCAACUUUACAAGCUGAAAAUGUAACAGGACUCUUUAAAGAUUGU	-0.302	0.121	-0.143	0.247
ACAAUGGCAGACCUCGUCUAUGCUUUAAGGCAUUUUGAUGAAGGUAAUUGU	-0.812	-1.12	-0.93	-0.242
ACACAUUCUGACAAAUUCACAGAUGGUGU [SHAPE_invitro_SARS-CoV-2_Motif_350]	-0.577	0.264	-0.471	-0.395
ACACGGUGUUUAAACCGUGU	0.59	-1.15	0.0341	-0.00656
ACACUAAUUCUUUCACACGUGGUGU [DMSMaPseq_invitro_SARS-CoV-2_Motif_381]	-0.0462	-0.973	-0.398	-0.0877
ACACUCUACGUGU	-1.14	-1.93	-1.78	-0.979
ACAGAAUGCUGU	-0.821	-1.19	-1.14	-0.472
ACAGACUUCAUUAAGAUGUGGUGCUUGCAUACGUAGACCAUUCUUAUGUUGUAAAUGCUGUUACGACCAUGUCAUAUCAACAUCACAUAAAUUAGUCUUGUCUGU	-0.753	-0.489	-0.512	-0.127
ACAGAGACUGAUAGUAAGUUCUCUGU [IAV_invivo_NA_6_Motif_16+IAV_invivo_NA_6_Motif_16]	-0.363	-1.08	-0.696	-0.328
ACAGAUCUUUACCAGGAGUUUUCUGU	-0.933	-1.3	-1.28	-0.827
ACAGCAGAGUGCUGU [IAV_invivo_M1_M2_7_Motif_17+IAV_invivo_M1_M2_7_Motif_17]	-0.599	-1.37	-0.887	-0.794
ACAGGAGUCACCUUUUGU [SHAPE_invitro_SARS-CoV-2_Motif_112]	-0.709	-0.669	-0.78	-0.599
ACAGGGACUACUCCCACCCAAGAAUAGCAUAGAUGCCUUCAAACUCAACAUUAAAUUGUUGGGUGUUGGUGGCAAACCUUGUAUCAAAGUAGCCACUGU	-0.466	-0.183	-0.503	0.116
ACAGGUUUUAUCGAACCUGU [IAV_invivo_PB1_2_Motif_25+IAV_invivo_PB1_2_Motif_25]	-0.147	-1.54	-0.828	-0.571
ACAGUAUGUCUUUUGUACUGU	-0.159	-1.28	-0.525	-0.336
ACAGUCUGUACCGUCUGCGGUAUGUGGAAAGGUUAUGGCUGU	-0.239	0.213	-0.273	-0.231
ACAUACUAGGACCUCUUUCUGCUCAAACUGGAAUUGCCGUUUUAGAUAUGU [DMSMaPseq_invitro_SARS-CoV-2_Motif_193]	-0.933	-0.421	-0.989	-0.407
ACAUAGCAGUGGUGUUACCCGUGAACUCAUGCGUGAGCUUAACGGAGGGGCAUACACUCGCUAUGU	-0.138	0.0437	-0.015	-0.167

Sequence	pull-down binding Z-score [1]	pull-down binding Z-score [2]	pull-down binding Z-score [3]	pull-down binding Z-score [4]
ACAUCAGCUUGUGUUUUGGCUGCUGAAUGU	-0.623	-0.485	-0.774	-0.534
ACAUCUCUGGCAUUAAUGCUUCAGUUGU [SHAPE_invivo_SARS-CoV-2_Motif_471]	-1.08	-1.06	-1.33	-0.583
ACAUGCCAAUUUAGAUUCUUGCAAAAGAGUCUUGAACGUGGUGUGU	-1.07	-1.62	-1.48	-0.712
ACAUUACACCAUGU [SHAPE_invivo_SARS-CoV-2_Motif_439]	-0.779	-0.865	-1.07	-0.6
ACAUUAGAUAAUCAAGAUCUCAAUGGUAACUGGUAUGAUUUCGGUGAUUUCAUACAAACCACGCCAGGUAGUGGAGUUCCUGUUGUAGAUUCUUAUUAUUCAUUGU	-0.0358	0.46	0.235	0.102
ACAUUUUAUCUUACUAAUGAUGU [SHAPE_invivo_SARS-CoV-2_Motif_191]	-0.182	-1.3	-0.428	-0.249
ACCAACCACCACAAACCUCUAUCACCUCAGCUGUUUUGCAGAGUGGUUUUAGAAAAAUGGCAUUCCCAUCUGGU	0.0884	0.456	0.386	0.384
ACCAAUGUGCUAUGAGGCCCAAUUUCACUAUUAAGGGUUCAUUCCUUAAUGGUUCAUGUGGUAGUGUUGGU [SHAPE_invivo_SARS-CoV-2_Multi_27_ComplexLevel_1]	-0.261	-0.569	-0.295	-0.186
ACCACCAAUUAAAGAUUUUGGUGGU [SHAPE_invitro_SARS-CoV-2_Motif_434]	0.206	-1.4	-0.123	-0.49
ACCAGGAGUUUUCUGUGGUGUAGAUGCUGUAAAUUUACUUACUAAUAUGUUUACACCACUAAUUCAACCUAUUGGU [SHAPE_invitro_SARS-CoV-2_Motif_181]	-0.0454	-0.878	-0.0352	-0.13
ACCAGUUAACUGGU [SHAPE_invitro_SARS-CoV-2_Motif_121]	-0.713	-1.19	-1.1	-0.55
ACCAUUCUUCGUAAGGGUGGU	-0.172	-0.847	-0.223	-0.207
ACCAUUGGUAGAUUUGCCAAUAGGU	-0.133	-1.45	-0.966	-0.848
ACCAUUUAAUGAUGGU [DMSMaPseq_invitro_SARS-CoV-2_Motif_383]	-0.648	-1.7	-1.21	-0.365
ACCCUCAAAAAGAGAUGGCAACUAGCACUCUCCAAGGGU	0.217	-0.427	0.0275	0.0435
ACCGGUGGAAUUGCUAUCGCAAUGGCUUGUCUUGUAGGCUUGAUGUGGCUCAGCUACUUCAUUGCUUCUUUCAGACUGUUUGCGCGUACGCGUUCCAUGUGGU	1.2	0.838	1.07	0.131
ACCUAAAUAGAGGU	-0.82	-1.63	-1.22	-0.686
ACCUCGUCUAUGCUUUAAGGCAUUUUGAUGAAGGU	0.13	-0.876	-0.152	-0.357
ACCUGCUCAGUAUGAACUUAAGCAUGGU	-0.339	-0.0122	-0.561	-0.184
ACCUUGAAGGAAAACAGGGU	0.525	-0.135	0.58	0.457
ACCUUUAAUUGAAUUGUGCGUGGAUGAGGCUGGUUCUAAAUCACCCAUUCAGUACAUCGAUAUCGGU [SHAPE_invivo_SARS-CoV-2_Motif_532]	-0.881	-0.962	-1.07	-0.862
ACCUUUAGUACCUUUCUGGAUAACAAUUGCUUAUAUCAUUUGUAUUUCCACAAAGCAUUUCUAUUGGU	0.707	-0.25	0.513	-0.225
ACGACGACUACUAGCGUGCCUUUGUAAGCACAAGCUGAUGAGUACGAACUUAUGUACUCAUUCGUUUCGGAAGAGACAGGUACGUUAAUAGUUAAUAGCGU	-0.319	-0.217	-0.304	-0.333

Sequence	pull-down binding Z-score [1]	pull-down binding Z-score [2]	pull-down binding Z-score [3]	pull-down binding Z-score [4]
ACGUACUGCCACUAAAGCAUACAAUGUAACACAAGCUUUCGGCAGACGU	0.386	0.871	0.464	0.565
ACGUGAGUCUUGUAAAACCUUCUUUUUACGUUUACUCUCGU	0.0863	-0.213	0.206	0.0619
ACGUGGCUUUGGAGACUCCGUGGAGGAGGUCUUAUCAGAGGCACGU	-0.105	0.34	0.0366	0.0243
ACUAAAAAUGU [SHAPE_invitro_SARS-CoV-2_Motif_381]	0.184	-0.642	-0.167	-0.343
ACUAAAAUAAAACCUCAUAAUUCACAUGAAGGUAAAACAUUUUAUGUUUUACCUAAUGAUGACACUCUACGUGUUGAGGCUUUUGAGU [DMSMaPseq_invitro_SARS-CoV-2_Multi_18_ComplexLevel_1]	-0.89	-1.02	-1.12	-0.146
AGGUAAAACCAACAGUGGUUGUUAAUGCAGCCAAUGUUUACCU	-0.405	-1.45	-1.2	-0.615
AGGUAAGUAUGAUACUUACCUG [U1snRNP5ss-2]	-0.742	-0.8	-0.856	-0.581
AGGUCAAAUCAAUGAUAUGAUUUUAUCU [SHAPE_invitro_SARS-CoV-2_Motif_388]	-0.87	-1.35	-1.31	-0.624
AGGUCCAGACAUGUUCCUCGGAACUUGUCGGCGUUGUCCU	-0.757	0.332	-0.838	-0.441
AGGUUGGACAGCUGGUGCUGCAGCUU [SHAPE_invivo_SARS-CoV-2_Motif_420]	0.658	0.891	0.754	0.159
AGGUUGGUAUGCAAAAGUAUUCUACACUCCAGGGACCACCUGGUACUGGUAAGAGUCAUUUUGCUAUUGGCCU	-0.654	0.696	-0.418	-0.203
AGUACACCUUUGAAAAAGGUGACU	-0.883	-1.09	-1.22	-0.572
AGUAUGGCUACAUACU [DMSMaPseq_invitro_SARS-CoV-2_Motif_53]	-0.637	-1.19	-1.06	-0.367
AGUCAGACAAAUCGCUCCAGGGCAAACUGGAAAGAUUGCUGAUU	0.0712	0.136	0.0567	0.0858
AGUCAUAACAAGAGAAGUGGGUUUUGUCGUGCCUGGUUUGCCUGGCACGAUAUUACGCACAACUAAUGGUGACU [DMSMaPseq_invitro_SARS-CoV-2_Motif_162]	-0.612	-0.252	-0.62	-0.178
AGUCAUAGUCAGUUAGGUGGUUUACAUCUACUGAUUGGACU	-1.18	-0.775	-1.35	-0.281
AGUCCCUGUUGCUAUUCAUGCAGAUCAACUUACUCCUACUUGGCGUGUUUAUUCUACAGGUUCUAAUGUUUUUCAAACACGUGCAGGCUGUUUAAUAGGGGCU	-0.948	-0.608	-1.03	-0.638
AGUCUUGUAGUGCGUUGUUCGUUCUAUGAAGACU	-0.733	-1.06	-0.932	-0.844
AGUGAGUACACUGGUAAUUACCAGUGUGGUCACU [SHAPE_invivo_SARS-CoV-2_Motif_119]	0.0351	-1.01	-0.332	0.0249
AGUGAUGGAACU [DMSMaPseq_invitro_SARS-CoV-2_Motif_229]	-0.565	-0.572	-0.658	-0.117
AGUGCCAACAGACAAUUAUAUAACCACUUACCCGGGUCAGGGUUUAAAUGGUUACACU	-0.449	-0.739	-0.462	-0.123
AGUGUAAAAGUGCCUUUUACAUU [DMSMaPseq_invitro_SARS-CoV-2_Motif_79]	-0.69	-1.12	-0.863	-0.399
